Source: US20030138946A1

T1: soluble H-2 K^b (K^bsol): heterodimer of truncated K^b heavy chain and murine β-2 microglobulin, purified from Drosophila cells (murine), P01901
T1 chain 1: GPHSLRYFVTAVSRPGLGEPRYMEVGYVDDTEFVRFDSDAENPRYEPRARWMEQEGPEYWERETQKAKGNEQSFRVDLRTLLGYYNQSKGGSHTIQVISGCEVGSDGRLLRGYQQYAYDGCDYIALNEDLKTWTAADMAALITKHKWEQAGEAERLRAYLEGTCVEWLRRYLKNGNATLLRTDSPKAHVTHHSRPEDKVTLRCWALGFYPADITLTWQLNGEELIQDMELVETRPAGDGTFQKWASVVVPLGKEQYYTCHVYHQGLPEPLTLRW
T1 chain 2: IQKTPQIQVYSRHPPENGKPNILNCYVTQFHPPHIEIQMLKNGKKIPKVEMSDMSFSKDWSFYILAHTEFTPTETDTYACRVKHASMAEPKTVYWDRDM

B1: OVA-9C (peptide)
chain: SIINFEKLT
modifications: not checked
B2: OVA-10C (peptide)
chain: SIINFEKLTE
modifications: not checked
B3: OVA-8 (ovalbumin 257-264) (peptide)
chain: SIINFEKL
modifications: not checked
B4: OVA-10N (peptide)
chain: LESIINFEKL
modifications: not checked

Molecular target: T1, soluble H-2 K^b (K^bsol): heterodimer …
Work on B1 yielded a Kd of 11 nM. B2 showed a Kd of 14 nM. Binder B3 has a Kd of 4.1 nM. Binder B4 has a Kd of 280 nM.
